Data reported in article PMC6937562, “Combining SPR with atomic-force microscopy enables single-molecule insights into activation and suppression of the complement cascade” (The Journal of Biological Chemistry, 2019).

Columns and labels:
Conditions in all cases: both partners purified
[1] = biological target: T1, C3b (human, UniProt P01024 23-667; P01024 749-1663); experiment: SPR; homemade HJEM7 chip, 143 RU C3b amine-coupled and 174 RU 3′-sialyllactose clicked on; FH (2 μM to 3.9 nM) or FH 19–20 (10 μM to 3.9 nM) flowed; Biacore T200, 25 °C, HBS-P pH 7.4; 1:1 steady-state model
T1 construct: complement C3 beta chain, human; Immobilised by amine coupling, via the nascent thioester (physiological) or via the free thiol of hydrolysed C3b; the way is told in each assay's format; also called C3b(H2O); C3b-SH; source: bought: Complement Technologies, Inc. (human plasma-derived)

[2] = biological target: T1, C3b; experiment: SPR; homemade HJEM7 chip (50% OH, 25% COOH, 25% propargyl), 144 RU C3b amine-coupled; FH (2 μM to 3.9 nM) or FH 19–20 (10 μM to 3.9 nM) flowed; Biacore T200, 25 °C, HBS-P pH 7.4; 1:1 steady-state model
[3] = biological target: T1, C3b; experiment: SPR; C1 chip, 196 RU C3b immobilised physiologically (seed C3b, then seven cycles of FB+FD and C3); FH flowed (2 μM to 7.8 nM); Biacore T200, 25 °C, HBS-P pH 7.4; 1:1 steady-state model
[4] = biological target: T1, C3b; experiment: SPR; homemade HJEM4 chip with maleimide groups, 240 RU hydrolyzed C3b coupled via its free thiol; FH flowed (2 μM to 3.9 nM); Biacore T200, 25 °C, HBS-P pH 7.4; 1:1 steady-state model
[5] = biological target: T1, C3b; experiment: SPR; C1 chip, 144 RU C3b amine-coupled; FH flowed (2 μM to 7.8 nM, 2-fold series, duplicates); Biacore T200, 25 °C, HBS-P pH 7.4, 150 mM NaCl, 1 mM MgCl2; 1:1 steady-state model
[6] = biological target: T1, C3b; experiment: SPR; homemade HJEM2 chip (1% COOH, 99% OH), 313 RU C3b amine-coupled; FH flowed (2 μM to 3.9 nM); Biacore T200, 25 °C, HBS-P pH 7.4; 1:1 steady-state model

B1: factor H (natural protein, human, UniProt P08603 19-1231, looked up)
chain: EDCNELPPRRNTEILTGSWSDQTYPEGTQAIYKCRPGYRSLGNVIMVCRKGEWVALNPLRKCQKRPCGHPGDTPFGTFTLTGGNVFEYGVKAVYTCNEGYQLLGEINYRECDTDGWTNDIPICEVVKCLPVTAPENGKIVSSAMEPDREYHFGQAVRFVCNSGYKIEGDEEMHCSDDGFWSKEKPKCVEISCKSPDVINGSPISQKIIYKENERFQYKCNMGYEYSERGDAVCTESGWRPLPSCEEKSCDNPYIPNGDYSPLRIKHRTGDEITYQCRNGFYPATRGNTAKCTSTGWIPAPRCTLKPCDYPDIKHGGLYHENMRRPYFPVAVGKYYSYYCDEHFETPSGSYWDHIHCTQDGWSPAVPCLRKCYFPYLENGYNQNYGRKFVQGKSIDVACHPGYALPKAQTTVTCMENGWSPTPRCIRVKTCSKSSIDIENGFISESQYTYALKEKAKYQCKLGYVTADGETSGSITCGKDGWSAQPTCIKSCDIPVFMNARTKNDFTWFKLNDTLDYECHDGYESNTGSTTGSIVCGYNGWSDLPICYERECELPKIDVHLVPDRKKDQYKVGEVLKFSCKPGFTIVGPNSVQCYHFGLSPDLPICKEQVQSCGPPPELLNGNVKEKTKEEYGHSEVVEYYCNPRFLMKGPNKIQCVDGEWTTLPVCIVEESTCGDIPELEHGWAQLSSPPYYYGDSVEFNCSESFTMIGHRSITCIHGVWTQLPQCVAIDKLKKCKSSNLIILEEHLKNKKEFDHNSNIRYRCRGKEGWIHTVCINGRWDPEVNCSMAQIQLCPPPPQIPNSHNMTTTLNYRDGEKVSVLCQENYLIQEGEEITCKDGRWQSIPLCVEKIPCSQPPQIEHGTINSSRSSQESYAHGTKLSYTCEGGFRISEENETTCYMGKWSSPPQCEGLPCKSPPEISHGVVAHMSDSYQYGEEVTYKCFEGFGIDGPAIAKCLGEKWSHPPSCIKTDCLSLPSFENAIPMGEKKDVYKAGEQVTYTCATYYKMDGASNVTCINSRWTGRPTCRDTSCVNPPTVQNAYIVSRQMSKYPSGERVRYQCRSPYEMFGDEEVMCLNGNWTEPPQCKDSTGKCGPPPPIDNGDITSFPLSVYAPASSVEYQCQNLYQLEGNKRITCRNGQWSEPPKCLHPCVISREIMENYNIALRWTAKQKLYSRTGESVEFVCKRGYRLSSRSHTLRTTCWDGKLEYPTCAKR
notes: complement factor H, human, 155-kDa serum glycoprotein of 20 CCP modules; Free FH: flowed as analyte in SPR, or amine-coupled directly to the AFM tip; also called FH; CFH; source: isolated from human plasma (TCS Biosciences Ltd.)
- Kd [1]: 90 nM
- Kd [2]: 70 nM
- Kd [3]: 130 nM
- Kd [4]: 180 nM
- Kd [5]: 230 nM
- Kd [6]: 50 nM
